Laboratory results from patent US20040086941A1 (Takeda / Millennium, published 2004).
Positions of bridges follow the written chain, without caps; N, C: chain ends. No end group written: not given here.

Assays:
[1] = biological target: T1, human receptor protein SLT (hSLT) (human, UniProt Q969V1 1-340); assay: radioligand competition; [125I]-labeled MCH(4-19) on membrane fraction (30 ug/ml) of human SLT-expressing CHO cells, filtration
T1 construct: Full-length human SLT expressed in CHO dhfr- cells; also called human SLT; CHO/hSLT cells
Method: Receptor binding assay was performed using [¹²⁵I]-labeled MCH (4-19) prepared in REFERENCE EXAMPLE 3 using Bolton-Hunter reagent and the cell membrane fraction prepared from human SLT-expressing CHO cells.
The cell membrane fraction prepared from human SLT-expressing CHO cells according to EXAMPLE 6 was diluted at various concentrations with the assay buffer (50 mM Tris-HCl, 5 mM EGTA (ethyleneglycol-bis(aminoethylether) tetraacetic acid), 5 mM magnesium acetate, 0.05% CHAPS, 0.1% BSA (bovine serum albumin), 0.25 mM PMSF (phenylmethylsulfonyl fluoride), 1 μg/ml pepstatin, 20 μg/ml leupeptin, pH 7.4). A 200 μl aliquot of each dilution was then dispensed in a polypropylene testing tube (Falcon, Inc., 2053). Two μl of DMSO and 2 μl of 20 nM [¹²⁵I]-labeled MCH (4-19) were added to the membrane fraction solution to determine the amount of total binding (TB), and 2 μl of a solution of 100 μM MCH in DMSO and 2 μl of […] [¹²⁵I]-labeled MCH (4-19) were added thereto to determine the amount of non-specific binding (NSB). After reaction at 25° C. for 60 minutes, the reaction solution was filtered with suction through a polyethyleneimine-treated glass filter (Whatman Co., GF-F). Following the filtration, the radioactivity of [¹²⁵I]-labeled MCH (4-19) remaining on the filter paper was measured with a γ-counter.
As a result, the IC₅₀ value was approximately 20 nM (FIG. 4). […]

[2] = biological target: T1, human receptor protein SLT (hSLT); assay: cell-based or functional assay

T1 sequence (Q969V1 whole entry): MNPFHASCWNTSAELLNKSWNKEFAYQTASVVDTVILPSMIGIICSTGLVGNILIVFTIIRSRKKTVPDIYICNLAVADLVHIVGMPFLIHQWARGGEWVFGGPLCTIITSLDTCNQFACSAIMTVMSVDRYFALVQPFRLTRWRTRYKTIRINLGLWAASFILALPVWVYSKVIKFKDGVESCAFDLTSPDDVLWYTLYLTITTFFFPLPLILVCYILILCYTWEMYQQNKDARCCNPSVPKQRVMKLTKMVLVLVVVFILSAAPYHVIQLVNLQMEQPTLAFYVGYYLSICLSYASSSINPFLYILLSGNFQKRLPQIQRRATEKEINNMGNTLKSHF

B1: Des-[Asp1, Phe2, Asp3]-MCH (MCH(4-19)) (peptide)
peptide: MLRCMLGRVYRPCWQV-OH
modifications: disulfide 4-13; N-terminus assumed
SMILES: CSCC[C@@H]1NC(=O)[C@@H](NC(=O)[C@H](CCCNC(=N)N)NC(=O)[C@H](CC(C)C)NC(=O)[C@@H](N)CCSC)CSSC[C@@H](C(=O)N[C@@H](Cc2c[nH]c3ccccc23)C(=O)N[C@@H](CCC(N)=O)C(=O)N[C@H](C(=O)O)C(C)C)NC(=O)[C@@H]2CCCN2C(=O)[C@H](CCCNC(=N)N)NC(=O)[C@H](Cc2ccc(O)cc2)NC(=O)[C@H](C(C)C)NC(=O)[C@H](CCCNC(=N)N)NC(=O)CNC(=O)[C@H](CC(C)C)NC1=O
notes: also called amino terminal-truncated form of MCH; N-terminal truncated form
Q: Which IC50 [1] does the source give for B1 here?
A: 3.3 nM

Q: How did the “release of [3H] arachidonic acid metabolite in human SLT-expressing CHO cells, EC50” value [2] turn out when DFDMLRCMLGRVYRPCWQV (disulfide 7-16) [melanin-concentrating hormone, MCH (synthetic human MCH)] was run?
A: 0.57 nM

Q: And the IC50 [1]?
A: ~20 nM
